± gives the uncertainty stated by the source.
Test: protein stability index of a GFP-peptide fusion (yeast GPS) (PSI 1-4); higher = more stable; sorted into four equal gates, so the index is relative within each strain
Procedure, shortened: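 Plasmids isolated from each sorting gate were PCR-amplified and Illumina-sequenced, and barcodes assigned the reads to strains. The gates, four of equal size, were set by GFP/Cherry fluorescence ratio on mid-log cultures in leucine-free medium. These cultures were yeast carrying a pooled library of tiled 17-residue yeast protein peptides fused downstream of GFP on a plasmid that also expresses Cherry. The protein stability index is the sum of every gate's read frequency times its gate number.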

Row | Sequence | protein stability index (doa10∆) | protein stability index (pdr5∆) | protein stability index (ubr1∆) | protein stability index (san1∆)
1 | PSCNNMLLITSGDSGVY [RPC11] | 1.32 ± 0.077 | 1.55 ± 0.22 | 2.24 ± 0.17 | 
2 | VVRIKGINKIPPKPRKV [RPL7A] | 1.94 ± 0.043 | 2.21 ± 0.055 | 2.44 ± 0.047 | 2.57 ± 0.063
3 | LKFNHGNYSHLMEKNRI [REC8] | 2.06 ± 0.073 | 2.47 ± 0.056 | 2.52 ± 0.052 | 2.28 ± 0.064
4 | LKIIHTSVWAGQKRLSQ [PRP8] | 1.36 ± 0.15 | 1.31 ± 0.12 | 1.48 ± 0.23 | 
5 | LYVPRKCSATNRIIKAD [RPS21A] | 3.08 ± 0.27 | 1.83 ± 0.2 | 2.19 ± 0.15 | 2.13 ± 0.12
6 | TIVLSLNVKCTRNPDAP [RPC40] | 1.66 ± 0.091 | 2.14 ± 0.18 |  | 2.91 ± 0.13
7 | SNMQKSLLPYYHLTKAV [RPN3] | 2.02 ± 0.038 | 1.87 ± 0.044 | 1.92 ± 0.033 | 1.85 ± 0.062
8 | GEENRVRFIGDSVAAIG [QCR2] | 3.3 ± 0.15 | 2.76 ± 0.18 | 3 ± 0.24 | 
9 | KNQLRDWIRFVSTKTNE [RPL22A] | 2.3 ± 0.046 | 2.22 ± 0.047 | 2.61 ± 0.04 | 2.17 ± 0.068
10 | RRKDTSMVLFFVCLSCS [RPB9] | 1.3 ± 0.052 | 1.32 ± 0.07 | 1.38 ± 0.039 | 1.4 ± 0.12
11 | IELIDYDKLPAGQNATV [RET1] | 2.41 ± 0.074 | 1.95 ± 0.079 | 2.4 ± 0.068 | 1.67 ± 0.2
12 | SRSTEKKNDMNTSAKNK [SIR4] | 2.52 ± 0.051 | 2.66 ± 0.05 | 2.88 ± 0.047 | 2.9 ± 0.052
13 | MMLGEHLMSWSKTGIIA [SIN4] | 1.6 ± 0.11 | 1.24 ± 0.11 | 1.53 ± 0.27 | 1.06 ± 0.13
14 | FRPIEIFTDFLPSSNGS [RRP42] | 2.19 ± 0.065 | 3.07 ± 0.08 | 2.87 ± 0.063 | 3.09 ± 0.056
15 | HDFLFNTIIRDGSKMLK [RPN14] | 2.05 ± 0.11 | 2.55 ± 0.095 | 1.38 ± 0.068 | 3.03 ± 0.15
16 | PFILEYDLMAPNGHIST [YMR129W/POM152] | 2.94 ± 0.12 | 3 ± 0.17 | 3.05 ± 0.097 | 
17 | YRATSLDPSLRAPIYHS [YML031W/NDC1] | 2.4 ± 0.068 | 2.68 ± 0.055 | 2.44 ± 0.037 | 2.44 ± 0.058
18 | YSIFLENENILIKAKNF [SMC1] | 1.21 ± 0.092 | 1.22 ± 0.11 | 1.14 ± 0.1 | 
19 | LEHLHSTAFQNTPLSLP [COR1] | 2.52 ± 0.039 | 2.66 ± 0.033 | 2.65 ± 0.039 | 2.35 ± 0.035
20 | AVCSTATVVSTNHSAAA [PGD1] | 2.85 ± 0.064 | 3.02 ± 0.077 | 2.91 ± 0.061 | 2.59 ± 0.096
21 | SLKDLSSLRNQELLNAE [RPN3] |  | 2.15 ± 0.22 |  | 3.34 ± 0.14
22 | EAGLQLCRQGHNMLNLL [PRP8] | 2.24 ± 0.079 | 2.29 ± 0.12 | 1.99 ± 0.06 | 2.07 ± 0.14
23 | TRVTRLSLQRANVEILA [CSL4] | 1.64 ± 0.042 | 1.78 ± 0.043 | 2.03 ± 0.033 | 1.78 ± 0.081
24 | KKEENETISNVAKTAPN [SNF2] | 2.86 ± 0.072 | 3.03 ± 0.065 | 2.94 ± 0.047 | 2.52 ± 0.1
25 | LTNEISDLKGKLSSAEN [YIL149C/MLP2] | 3.38 ± 0.22 | 3.29 ± 0.13 | 3.32 ± 0.18 | 

Row | Sequence | protein stability index (doa10∆) | protein stability index (pdr5∆) | protein stability index (ubr1∆) | protein stability index (san1∆)
26 | GEINKICMESLFLEPSW [PCI8] | 1.84 ± 0.12 | 1.89 ± 0.083 | 1.99 ± 0.063 | 2.03 ± 0.12
27 | KRRIEEEQEKINSAPDF [ISW2] | 3.4 ± 0.2 | 3.58 ± 0.22 | 3.57 ± 0.099 | 2.98 ± 0.15
28 | SNVFGSNNSTTNTFGSN [YJL041W/NSP1] | 3.08 ± 0.063 | 3.44 ± 0.076 | 3.47 ± 0.054 | 3.22 ± 0.043
29 | RTLRRKGDINPEVSMIR [RPB2] | 3.11 ± 0.16 | 3.39 ± 0.13 | 3.12 ± 0.076 | 2.79 ± 0.21
30 | VNTTRRFQYSDDEPAEK [YMR129W/POM152] | 2.87 ± 0.22 | 3.17 ± 0.17 | 2.95 ± 0.19 | 2.86 ± 0.19
31 | LICQNNLNAFVDFSKYN [SRP72] | 3.1 ± 0.077 | 2.99 ± 0.063 | 2.54 ± 0.061 | 3.11 ± 0.044
32 | EVGMKVQSGQIYINKSV [RET1] | 2.83 ± 0.074 | 3.05 ± 0.073 | 3.08 ± 0.069 | 2.6 ± 0.082
33 | DPNEVEIKKLLATNSLV [DIS3] | 2.19 ± 0.049 | 1.82 ± 0.048 | 2.29 ± 0.046 | 2.35 ± 0.057
34 | SVALHRHSNALVDILPP [RPT3] | 1.63 ± 0.047 | 2.1 ± 0.056 | 1.94 ± 0.041 | 2 ± 0.07
35 | SFFNISPDAPKEIMDKI [SIN4] | 3.48 ± 0.11 | 3.32 ± 0.14 | 3.29 ± 0.1 | 3 ± 0.13
36 | CLDRCKEQYNRYRDLMI [MTR3] | 2.64 ± 0.074 | 2.62 ± 0.046 | 2.88 ± 0.063 | 2.69 ± 0.054
37 | ANAVQNNNGNSAASKKK [SRP21] | 3.06 ± 0.11 | 3.29 ± 0.11 | 2.93 ± 0.11 | 2.96 ± 0.092
38 | TTTATPHANPITHAHSL [PGD1] | 2.84 ± 0.043 | 3.01 ± 0.041 | 3.003 ± 0.029 | 2.88 ± 0.035
39 | DVILDYQTKKFYDYIKE [REC8] | 2.4 ± 0.06 | 2.58 ± 0.052 | 2.92 ± 0.051 | 2.55 ± 0.071
40 | RLQFAQGSVRRLTVSAR [QCR2] | 1.33 ± 0.075 | 1.39 ± 0.13 | 1.14 ± 0.073 | 1.77 ± 0.27
41 | QVNQLQRILEVLGTPDQ [SSN3] | 1.49 ± 0.043 | 1.69 ± 0.037 | 1.51 ± 0.038 | 1.34 ± 0.05
42 | AHNKPSLFSKIKTFFTQ [YAR002W/NUP60] | 2.37 ± 0.079 | 2.85 ± 0.076 | 2.73 ± 0.065 | 2.66 ± 0.064
43 | LNTLNNVVEIWVFSYLR [SIR3] | 1.56 ± 0.043 | 1.6 ± 0.063 | 1.58 ± 0.053 | 1.42 ± 0.11
44 | FDNKSTSEEQEALLRSL [SNF2] | 3.32 ± 0.072 | 3.6 ± 0.18 | 2.73 ± 0.2 | 2.68 ± 0.26
45 | IFSYLQFTSSLFKALKV [RGR1] | 1.61 ± 0.059 | 1.3 ± 0.052 | 1.05 ± 0.056 | 1.12 ± 0.11
46 | GGVGSMGAINNNIPSLT [SNF6] | 3.26 ± 0.11 | 3.34 ± 0.09 | 3.32 ± 0.1 | 3.39 ± 0.072
47 | AYSNTNTNTENENRNTG [SNF11] | 3.1 ± 0.14 | 2.95 ± 0.065 | 2.95 ± 0.072 | 2.95 ± 0.071
48 | DGYQLFHAEPSGTFYRY [PUP2] | 2.14 ± 0.11 | 1.6 ± 0.095 | 1.5 ± 0.076 | 2.64 ± 0.062
49 | LTFNSKNIQSKDSYINA [FAS2] | 2.84 ± 0.16 | 2.72 ± 0.076 | 2.68 ± 0.12 | 2.73 ± 0.17
50 | HLRSNILKDLIYRGVLN [SMC1] | 1.74 ± 0.059 | 1.78 ± 0.085 | 1.74 ± 0.056 | 1.8 ± 0.14

Source: the supplement of paper PMC9732359
